The values that follow come from a protein production outcome set (Wang et al. 2014).

The data set can be described thus: label from the status in PepcDB records.
As for “MRKRGIMSKRLLAVLCMASVTTSLFSFRGLEVKASPNVPYDQKESLAPLGEVYSIETLLNWTPESDPDAKYNRASIELQDRFMGDIVNENANPEAKIMNVALTNPYVDRAPSQGSDSMDAYVFSYWQYVNSYVYWGGSSRGIFALPTPDVVDNAHKNGVPVLATIGFPWGPGEGYVEQVRAFLQKDNNGNFPVADKMIEIAEYYGFDGYFFNQESYGCVKDDADRMVEMLEYIKKKAPNMVIGWYDSMTVDGNVKWQDALNDKNAAFFQNGENRTTDEFFLNYNWTPEKIETTVNTAKSLGRSPFDVYAGLDVQQNAYNTPFNDDYLLDENGKLRLSLAMYTPNSTFSMAKDVYDFYKHDQKFWVGPTGDPSKSDTEQDWTGLANYVPDRSAINDLPFVTNFNLGHGEDYYIDGSLSRDEEWNNRAMQEYLPTWRWIVESNGSKLTPDFDFKTAYNGGSSLKVEGKLEAANPNHIKLYSTDLNIENNSTELSIVYKTESAPNMKVGLCFGENYDEENFTFFDVNKNSNGEWTEVKIPLGDHVGKTISAISLKFESGQDVENFKINVGQISIEETAENNKGLKNSDVILEETMVHNSNSAEARIYWNGLESGNEDDLAFYEIYRIKPDGSRELMGATPNDAYYVQEFERYGEEMEFDIEVVPVDVNYNRGEGKRVTFNWGIPHDATQIPDKKVYENLALYKSVQTSAEGAAEPGLKAVDGKVDNNSKWCAAGAKDGWLTIDLGEPKNIQRWVVKHAEAGGEAKDMNTKDFALEVSYDGGQTYQEVDVVTGNEDAITDRNLENPIVAQHLRLRIDNSGSSPWAAIRIYEFQLYEETFTDQTTEIPMRFVNAKNNKGANDSVLFTRGKEGQTVNLYKGLNDETPFATATIDSNGEAKFEGLDFGEDGGRVYYGTVEEGKRESLRMSAAFEGENWEYSKVPERFELTPYKAPGMNGENHNYGTLKINDLEAGDIVSIFNDKDSIFPEKVSVPVAKGGDTAILDRISINPEGGVLTLEVKSEGKKARRIEVPYSGFGEIEMKIESEAPTNLRTVDVQKKSVSLAWDSPENTYGLEGYIIYKDNKKVGEVSADETEFTVGKLNRHTIYNFKVAAKYSNGEISKRDTITVRTAR”, the protein production result is “failed”. “MRKRIFWLLPDLASARRTMDDLLLARIENSHIHFVGRDGADMTGLHEANLFQTSDIVHAAEMGLMVGGGVGIVAGVVVAMFPIVSDSPQWGLVGVLAVLGAVFGAWAASMIGSSAPNSRLRSFEKDIEAGKLLLMVDVPRGRVEEVEALLQKAHPEASFAGLDPAVPAFP”: the protein production entry is listed as “failed”. Turning to “MRLDKFIAQQLGVSRAIAGREIRGNRVTVDGEIVRNAAFKLLPEHDVAYDGNPLAQQHGPRYFMLNKPQGYVCSTDDPDHPTVLYFLDEPVAWKLHAAGRLDIDTTGLVLMTDDGQWSHRITSPRHHCEKTYLVTLESPVADDTAEQFAKGVQLHNEKDLTKPAVLEVITPTQVRLTISEGRYHQVKRMFAAVGNHVVELHRERIGGITLDADLAPGEYRPLTEEEIASVV”, the protein production result is on record as “not failed”.

For the sequence “MRLFFSLLILLSFFARATEPVQVFTDDLGRKVTVPAHPKRIVSLHDLDITIPLIELGVPPVASHGRTRPDGSHFIRSGALLTGVDFDNSSIAFIGTADIDIEAIVAAKPDLIITEPTRNTPIERLEKIAPTVSIDHLKGGAPEIYRKLAELTGTQSQLAILERRYQAQINALKATLDSQKITVSVIQANQGKINVMHSYHSLGRVLRDAGFRFPPLIESIPEGGRMDVSAERLPELDADFVFATWRGDTGGKPQDELAAMEKVMPGWCQFLTACRSGRYVLISREEAISNSFASLGLMAAQIQSQIAGRPLPEAK”, the protein production entry is given as “not failed”. Next, “MRLLACWTDVHHRHAPMTAHDLPRQAFLRGAVAILPLSLAVAPWGLLAGSMAIEANLTPAEGQGLSAIVFAGAAQLVAIGMLKGGAGFFSIIFTTLLLTSQHLLYGMSLRPVLSPLPGRWRIGLGFLLTDEFFALASQHDRRNFNRWYALGVGLTFYIAWNLFTLAGILLGRSIPGLEHLGLDFSIAATFIALVAPLVRNVPTLVCVATSLFCSVLFSHWQWSSALVLAGLAGMAAGFICNKLYREAPWSGQ”: “failed”; “MRLLAVFVSSRLSPEDPLYARWVRYGEVLAEEGFGLACGGYQGGMEALARGVKAKGGLVVGVTAPAFFPERRGPNPFVDLELPAATLPQRIGRLLDLGAGYLALPGGVGTLAELVLAWNLLYLRRGVGRPLAVDPYWLGLLKAHGEIAPEDVGLLRVVADEEDLRRFLRSL”: “not failed”. Turning to “MRLLVAFAVIYFISISPVCAENTASTINIPTPAIESPLASKSLLLDISLIGQEKLVTVGQHGHILLSNDGKKWQQANVPVQVTLTNVFFLNEQLGWAVGHDATILHSQDGGLNWQVQQYLPLLEKPLFDIYFKNPQQGIAVGAYGQVFRTNDGGSTWQNEFHQEILLADDVEYLNELKAEDEAAYLDEITFILPHFNRLVQDGGSLFLLGETGLLAKSDDFGLTWQQFDNFYQGSFFSLARTKTGNVLVAGLRGHVFRSLNHGSQWDEVPTNTTALLNDIVFANDERIFILGNNGMLLISTDDGESFSKIPQQDGKTLIAGVWFKGQLIAVSDVGIKVVDLSQE”, the protein production entry was “failed”. Next, “MRLNKLFILYSLFGILMASCIKDEAPNAEADITGISFEEDVLASARFNLNPSYNDNLQAYPILVKVKEGTPLNKLSPLFELTPGATISPESGSEHDFSDGKRVKYTVTSENKAWQRVYSIGVREQSVSDIPNEFHFEDIRLINGINPKYKYQEFYEEQDGLELTWASGNEGFNWAASSSATENYPTSQYDNGKNGKCAKLETRLTGSLGAMVGMPIAAGNLFIGEFDMTNALTSPLKATHFGTPFCYKPSRLKGWYKYKAGERFYENGGYTDRKDVMNIYAIFYEGESYNEAGEVTEVILDGNLPNQNYEHPSMVALALISNPHETDDWEAFDIPFDYQRYGKEIDETKLAKGKYKLSIIFASSKNGATFEGAPGSTLLVDDVELIFE”: “failed”.

For the sequence “MRLNYPSKVSEEGFQVMVLSLSILKKSFNDFLSTRMLLINLGPILLSLAFFGAVFYYNGGNIVGYCQTLLPQSLNDYSHSQGFFAGVFAWVFKALVYFLIFWIVILLSLVINIFASIFYTPLVVSYLHQKYYPHVVLEEFGSILFSIKYFLKSLAFMLLFLAVLTPFYFIPFIGVFGVFFSIVPHFLFFKNTMSLDIASMIFNHQSYQNLLKQHRLKHYRFSFFCYLFSLIPFFNFFATLLQTLMLTHYFFIFKEKEC”, the protein production entry is “not failed”.

As for “MRLPFAITRFAAGAALAALGTSAFANCVANPPTQSNASFPASLAGKLAYHSYVSYGDGTSQLFIYDFAARTLTQVSKSAWGIQDPMNAVFSPDGKWLAFMGITNNAWNVFLWQVGSSSQPVNMTNSTGQTRNEDPKFSADGKSLFFKQSGDVMQATLSYTSTGPIFTSVVDITNTAPATENSMPFATPDGSAVYFATGTGAGMGLYKETIATHATFAFDTPAGLQTYYPIVRADGTVFYARWKDAASQADQIYTKVNPGDTPNQLSINDCNSNNSDPAPVNGTNYVFFSSTTAGGYQLYLGDVSTGQRWSLSQFGVNSDTTKAKLGSNYYAGGTTASTSGQTTRLLSQGMPASASSSYNSSLGAANAFDGDTANTRWDSIEGSAAGTQWLMVDLGTVRTINGVDLYWDAGAKTYAIQTSSDGVNWTSIYSTSNGIAYGHAVLSNLRGSGRYVRMYGTQRATQWGYSIDEMQVWGY”, the protein production entry was “failed”. As to “MRLPGSGYSYTVIQSKNNYSQKSSFGISFVILSRGTKIFREDLFEFLSNFDFIREIISIEKQSNRSSLQFISESYGKLKFILLSDDLNSGEKVNLAMKESSCDFVFVLQSDMYLLNPFWIPNIFDEIVKKNVLLVGGEFFDKEEEMIPSIFLPSIDKKQKFKVILVNSEKDYEKTLITMDYCGLYSKEKFLQLGGFDARIQNEYFQRIDFGLRAIYFGEHVYIYRKLRIQYTALNSPENLTKSKSFLIFLLKNYVPIFVGNGVVFSFLRFCKICLKYKINPFLFQKEFKEIKGEITKNSLRFKGDLKSAIELWENDIID”, the protein production entry is “failed”. Regarding “MRLRNWPRWQRWLNRRIPPASSVELNQRRVFILPTRQGGAFGLALLVMLLAAINYQNSLAYGLTFLLLSLGVVTILHTYRNLAGLRLTALGADPVFAGERAGFRVRLESPRRARQAIAVGWPERPLEYADLAGDAAAEVLLFHPTERRGWLRPGRLRVESRFPLGLLVAWSWVDLRQQALVYPRPQAGEPLLAPGAEDAEDQGRALASAGVDDYQGLRAYQPGDSRRRLHWKAFSRGQGLLVKDFAALGGEDLWLEFERLGGDLESRLGRLCHAVLELSARQQPYGLALPGTRLQPASGEAQREACLRALALFGAAR”, the protein production entry was “failed”. “MRLSILRARSTGSGQASPRASRTRGARSAAAGGSWVVIFLPLHCGTRSLTMPRRARNAQTASSCSLERPNEWKEPPPVSGFEVTIVDAESVIAWVKAGKVTVFDVREPEEFAAAHIEGAIPNPLSRFDASLIPTDSPVPVVLHCRSGVRCGHAADRLRASGFQGKINRMAGGIIAWQAAGGPVVSG”: the protein production entry is recorded as “failed”. With “MRLSKEFIGLGIITASLIFGSSLPDIYKGIVILIVAGCLWFFELLPLPVTSLAIPIMAVFLGIFNLKEALTYFAHPIIFLFLGGFMLAQALKNHNLDKFIAYKLLNYGKDFKTTCFLMFLSAYFLSMWISNTSATLILLPIALGLLHKKTGKLRDFLLLGVAYSASIGGIATIIGSPPNAIASSYLDYGFFSWFKVGFPISLLLFLICTLTLYIYFKKWIPKEDIAIQARMELSRNAYKLLVIFVLIASLWIISDYLSEIFNVQYFDSVIAIFAIILLFVFNLVEVNDFKKIDWGTLILFGGALCLGGVIVKSGANTFLSEKLIAILGNLTPIVLLFLVVTITIILTNFISNTGLTGIIVPILFGVSLGIPKEILILAVGMSASCSFILPVGTPPNAIVYSEGVKKEEMMKIGMILSILSAAVITLYSILYL”, the protein production result was “failed”. Next, “MRMENQKDLQENYLKVLERVELGSRVSGTVVNIMKDYVLVDIGYKSEGFIKIEEFENVPQVGDRLEAIVVRIGGELGLILSVEKLNSLNFQDKVYEYIQNKKIIKGKVLVELPNGYKIQINENVSGFMPFYLSSKSKDEKLKRGSVVEFYILEASEADGLRLILDRRTLEKERDLAKRIELVSSYNEEDVVDGVVERITEYGAIVKIKNFVTGILHKRNIAFNQVENVEDFVRVGDKLKLKIIKINPQTGKMELSLKALKANPWDSVDVKYKIDSIVKGKVVKILPFGAVIELDSELSGFLHISNFSWIRVVKSPQELIKLGQIVEVKILEIDKENQKISLGIKQINENPWERLTEKYPIGRVVQGVVTNITKTGAFVNIEEGIDAYVSKFDISWLEEIDPEEYFKIGDLVNGKVLEVDKRKRNVRLGIKQLEESPWEDFSKSYKKGDTIEVEIVEKKSKGFQVRVYNKIMGFISKIQLGDTKESSLETFEKLNVGDKLKVVITSIDSKDKSVLLSYREYENQRSREEISSYLFKGNDEESYKPFENLLKRDELEHHHHHH”: “not failed”; “MRMIGRRRALEHRITLIAVIVILQLAATLFFLVDVTGDLRADGSGVHIAAEAGAAIALLVGVVFGAAQVRWLVLRARQDEAAVAAAKGALADLARLRFSDWKLTAAEADVALFALKGCDVAEIAALRGAAAGTVRAQLARVYAKAGVNSQSALMALFLEELVEAGEG”: “failed”.
